Bridge positions count the residues as written; N and C are the ends. Ends that are not written are not given here. * marks the point of attachment. Acetylthioacetyl = CC(=O)SCC(=O)*
How the values were obtained:
integrin α2β1 receptor = biological target: T1, integrin α2β1 receptor (Homo sapiens, UniProt P17301); details: cyclic peptide: in the presence of 2 mM MgCl2; cited from earlier work
T1 sequence (P17301 153-368 limits assumed): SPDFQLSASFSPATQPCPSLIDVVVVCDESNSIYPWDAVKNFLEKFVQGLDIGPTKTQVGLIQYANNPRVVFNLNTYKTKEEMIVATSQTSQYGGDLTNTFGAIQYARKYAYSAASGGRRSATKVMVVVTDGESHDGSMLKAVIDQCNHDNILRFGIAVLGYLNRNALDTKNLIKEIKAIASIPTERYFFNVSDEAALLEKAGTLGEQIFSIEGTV

A431 cells [1] = experiment: Binding of DiD-labeled peptide-conjugated liposomes to A431 cells at 4° C. (flow cytometry); format: cell-based, human
Procedure: (§1) Human epidermal carcinoma cells A431 were subcultured in Dulbecco's modified Eagle's medium (DMEM) containing 3.7 g/l sodium bicarbonate and 4.5 g/l glucose, supplemented with antimicrobial agents, 2 mM L-glutamine and 7.5% (v/v) fetal bovine serum, at 37° C. in a humidified atmosphere containing 5% CO2. Nearly confluent mono-layers of A431 cells were washed with PBS and cells were detached using 1 mM tris-EDTA in PBS. The cells were subsequently suspended in cold PBS supplemented with 1.26 mM CaCl2 and 0.81 mM MgSO4 at 4° C. The cells were counted after centrifugation and 10^5 cells in 100 μl media were incubated with 100 μl liposomes diluted in PBS supplemented with 1.26 mM CaCl and 0.81 mM MgSO4, different concentrations of DiD-labeled liposomes (10-200 nmol total lipid), RKK12-conjugated liposomes (RKK12-liposomes) or AKK12-coupled liposomes (AKK12-liposomes) for 1 h at 4° C.
(§2) In the cellular internalization of liposomes experiment, similar different concentrations of DiD-labeled liposomes (10-200 nmol total lipid) RKK12-liposomes were incubated for 1 hour at 37° C. […] At the end of the incubation period, cells were washed three times in the 5% BSA supplemented PBS-buffer at 4° C., and resuspended in 200 μl PBS supplied with 5% BSA after which they were analyzed on a FACScalibur flow cytometer (Becton-Dickinson). […]

A431 cells [2] = experiment: Cellular internalization of DiD-labeled peptide-conjugated liposomes at 37° C. (flow cytometry); format: cell-based, human; details: 1 hour at 37° C., FIG. 4
Procedure: as §1, §2

HaCat cells = details: cited from earlier work
[3] = tested on: Adult human epidermal keratinocytes (HEKa); experiment: Cathelicidin (CAMP) expression by qPCR in keratinocytes incubated with calcipotriol-loaded liposomes; format: cell-based; details: 10^−7 M calcipotriol, 1 h at 37° C. then 24 h, versus placebo RKK12-conjugated liposomes, FIG. 6
Procedure: Adult human epidermal keratinocytes (HEKa) were obtained from Cascade Biologics (Portland, Oreg., USA) and cultured in EpiLife Medium (Cascade Biologics) containing human keratinocyte growth supplement and gentamicin/Amphotericin B (Cascade Biologics) at 37° C. in a humidified atmosphere with 5% CO2. For the cell interaction assay, 2×10^5 exponentially growing keratinocytes were seeded one day prior to treatment. On the following day (at 80% confluency), the medium was renewed, and the cell culture media was supplied with 15 μl of liposome suspension for a final concentration of 10^−7 M calcipotriol in the well, 15 μl placebo liposomal suspension, or calcipotriol in 0.1% DMSO solution for a final concentration of 10^−7 M and incubated 1 h at 37° C. The liposomes were conjugated with either the RKK12-peptide or the AKK12-peptide. After 1 h, the cells were washed three times with PBS supplemented with 1% BSA, and 1.5 ml media was added followed by incubation for 24 h at 37° C. Subsequently, the medium was removed, and mRNA was extracted using the RNeasy kit from Quiagen (Hilden, Germany). […] The relative change in the expression of CAMP was quantified using the comparative CT method (2^−ΔΔCt)(K. J. Livak and T. D. Schmittgen, Methods 25, 2001, pp. 402-408).

[4] = biological target: T2, integrin α2β1 receptor on the surface of A431 human epidermal carcinoma cells (human, UniProt P17301 30-1181; P05556 21-798); experiment: flow cytometry, DiD-labeled peptide-conjugated liposomes on A431 cells at 4° C.
T2 construct: whole, on cells; Endogenous receptor on A431 cells; also called human integrin α2β1 receptor
T2 sequence (P17301 30-1181, chain 1 of 2): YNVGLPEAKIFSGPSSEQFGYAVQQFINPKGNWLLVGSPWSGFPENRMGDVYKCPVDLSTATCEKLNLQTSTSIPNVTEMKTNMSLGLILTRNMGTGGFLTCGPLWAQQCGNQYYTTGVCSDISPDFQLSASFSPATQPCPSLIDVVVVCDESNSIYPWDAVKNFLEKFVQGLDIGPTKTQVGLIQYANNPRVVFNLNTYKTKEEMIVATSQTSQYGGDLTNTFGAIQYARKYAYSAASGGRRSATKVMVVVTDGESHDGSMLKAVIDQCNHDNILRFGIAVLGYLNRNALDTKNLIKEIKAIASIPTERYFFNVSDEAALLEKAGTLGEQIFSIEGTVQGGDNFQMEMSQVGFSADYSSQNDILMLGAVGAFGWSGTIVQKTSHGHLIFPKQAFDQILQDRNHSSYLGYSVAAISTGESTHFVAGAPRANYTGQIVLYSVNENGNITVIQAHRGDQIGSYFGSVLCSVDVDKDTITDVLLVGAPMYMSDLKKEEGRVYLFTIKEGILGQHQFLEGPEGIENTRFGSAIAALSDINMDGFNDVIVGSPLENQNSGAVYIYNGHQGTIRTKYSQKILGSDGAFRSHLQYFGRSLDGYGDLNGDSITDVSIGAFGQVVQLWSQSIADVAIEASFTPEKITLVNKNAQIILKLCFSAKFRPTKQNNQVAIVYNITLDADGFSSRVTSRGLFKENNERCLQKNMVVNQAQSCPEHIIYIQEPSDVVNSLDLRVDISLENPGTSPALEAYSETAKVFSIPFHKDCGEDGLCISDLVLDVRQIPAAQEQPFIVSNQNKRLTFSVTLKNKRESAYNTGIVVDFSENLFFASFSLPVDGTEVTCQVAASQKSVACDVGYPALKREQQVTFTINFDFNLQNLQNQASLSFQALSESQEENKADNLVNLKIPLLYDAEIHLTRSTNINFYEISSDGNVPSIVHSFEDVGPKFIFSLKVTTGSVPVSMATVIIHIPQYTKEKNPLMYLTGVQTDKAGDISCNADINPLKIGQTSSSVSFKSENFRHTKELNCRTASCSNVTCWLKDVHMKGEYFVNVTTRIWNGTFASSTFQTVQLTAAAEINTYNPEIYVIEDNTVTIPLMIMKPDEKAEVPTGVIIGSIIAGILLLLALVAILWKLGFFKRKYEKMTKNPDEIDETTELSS
T2 sequence (P05556 21-798, chain 2 of 2): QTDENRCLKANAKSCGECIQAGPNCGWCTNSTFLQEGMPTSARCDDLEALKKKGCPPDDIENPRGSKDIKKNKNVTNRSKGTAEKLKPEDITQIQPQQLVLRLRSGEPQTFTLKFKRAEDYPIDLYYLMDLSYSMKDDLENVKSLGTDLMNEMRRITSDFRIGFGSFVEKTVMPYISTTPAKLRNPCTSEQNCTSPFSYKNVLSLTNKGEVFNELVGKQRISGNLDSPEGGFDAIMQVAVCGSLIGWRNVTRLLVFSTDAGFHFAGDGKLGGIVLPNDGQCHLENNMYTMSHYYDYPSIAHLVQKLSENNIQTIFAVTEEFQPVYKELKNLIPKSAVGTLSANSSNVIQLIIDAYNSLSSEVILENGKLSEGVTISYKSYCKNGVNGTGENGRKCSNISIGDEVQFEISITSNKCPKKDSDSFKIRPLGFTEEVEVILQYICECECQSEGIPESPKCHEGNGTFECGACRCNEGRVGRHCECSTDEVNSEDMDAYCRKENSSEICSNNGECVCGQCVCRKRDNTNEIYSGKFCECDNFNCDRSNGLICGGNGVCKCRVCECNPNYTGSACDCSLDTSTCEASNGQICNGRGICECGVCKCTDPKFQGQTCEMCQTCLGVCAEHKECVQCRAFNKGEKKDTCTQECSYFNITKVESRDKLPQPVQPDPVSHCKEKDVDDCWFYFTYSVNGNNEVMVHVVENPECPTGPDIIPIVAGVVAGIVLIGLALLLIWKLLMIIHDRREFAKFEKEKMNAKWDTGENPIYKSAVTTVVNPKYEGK

In the case of “C^241TRKKHDNAQ^249C: nine amino acid long cyclic peptide with RKK motif derived from jararhagin (Ivaska et al.) (CTRKKHDNAQC; disulfide 1-11)”, the “inhibition of collagen I interaction with the integrin α2β1 receptor” value (integrin α2β1 receptor) is given as “inhibit the interaction”.

With “RKK12-liposomes: DiD-labeled liposomes (DSPC, PEG2000-DSPE, Mal-PEG2000-DSPE, cholesterol) conjugated with RKK12 peptide (cyclo(KHDNAQSK(Acetylthioacetyl)STRK); also: conjugated to DiD-labeled liposomes)” the “association of liposomes at low Mg2+ concentrations, versus AKK12-conjugated liposomes” value (A431 cells [1]; 4° C., PBS not supplied with CaCl2 or MgSO4, FIG. 5) was “only slightly higher”, the “fluorescence of cells (association of liposomes)” value (A431 cells [1]; 1 h at 4° C., PBS with 1.26 mM CaCl2 and 0.81 mM MgSO4, 10-200 nmol total lipid, FIG. 3) was “significantly more fluorescent” and the “internalization (cellular uptake) of liposomes” value (A431 cells [2]) was “highest”.

For `C=C1/C(=C\C=C2/CCC[C@]3(C)[C@@H]([C@H](C)/C=C/[C@@H](O)C4CC4)CC[C@@H]23)C[C@@H](O)C[C@@H]1O` [calcipotriol], the levels of cathelicidin (HaCat cells) is listed as “Increased levels”.

With “AKK12-conjugated liposomes: calcipotriol-loaded liposomes conjugated with the control peptide AKK12 (cyclo(KHDNRQSK(Acetylthioacetyl)STAK); not fully specified)” the “expression of cathelicidin (CAMP) normalized to GAPDH” value [3] was “no significant difference between the formulations”.

B1: AKK12 head-to-tail cyclized control peptide H-KHDNRQS-(SATA)KSTAK-OH, conjugated to DiD-labeled liposomes (peptide)
peptide: cyclo(KHDNRQSKSTAK)
modifications: not fully specified (residue 8)
notes: Control peptide with similar charge as RKK12 but without the RKK motif (Arg and Ala exchanged); tested only as a liposome conjugate; also called AKK12-peptide; AKK12-liposomes
B1: binds [4].

B2: RKK12 head-to-tail cyclized targeting peptide H-KHDNAQS-(SATA)KSTRK-OH, conjugated to DiD-labeled liposomes (peptide)
peptide: cyclo(KHDNAQSKSTRK)
modifications: not fully specified (residue 8)
notes: Synthetic cyclic peptide; tested only as a conjugate on the surface of DiD-labeled PEGylated liposomes, so many copies per particle; also called RKK12-peptide; RKK-12 peptide
B2: binds [4].
